Test results reported in publication PMC4352251, “The VieB auxiliary protein negatively regulates the VieSA signal transduction system in Vibrio cholerae” (BMC Microbiology, 2015).

Target: VieS-C (untagged cytoplasmic portion of the sensor kinase VieS) (UniProt O68317)
Test: composition-gradient MALS (CG-MALS)

“VieB D62E (His6 tag removed) (from UniProt O68319 1-553) (natural protein)” was tested, and the Kd was 197 nM and the stoichiometry N (VieB D62E monomer per VieS-C dimer) was 1.
